Biological target: griffithsin (GRFT)
Test: AUC

griffithsin (GRFT) (natural protein)
stoichiometry N: 2
